What follows are sequences tested on MCF10A (assay: percent viability (nuclei count relative to siNT); higher = more viable cells). Conditions: 20 nM; 72 h.
Method: (§1)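 After 72 h, cells were fixed and stained with Hoechst and anti-fibrillarin, and nucleoli per nucleus were counted with CellProfiler. Values are plate-adjusted percent effect for the one-nucleolus and 5+ nucleoli phenotypes, normalised to siNT (0%) and to the positive controls siNOL11 or siKIF11 (100%), as the mean of biological triplicates. Percent viability is the nuclei count relative to siNT.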

Question: How did the percent viability turn out when “AGGUUGUCCGUGUUGUCUUCUCU [hsa-miR-494-5p]” was run?
Answer: 22.3%

Question: CAUGCCUUGAGUGUAGGACCGU [hsa-miR-532-5p] was tested. Which percent viability did it give?
Answer: 19.5%

Question: Which percent viability does the source give for “CAUGCUGACCUCCCUCCUGCCCCAG [hsa-miR-4728-3p]” here?
Answer: 69.7%

Question: UACAGAUGCAGAUUCUCUGACUUC [hsa-miR-5683] was tested. Which percent viability did it give?
Answer: 40.9%

Question: How did the percent viability turn out when UUGAGAAUGAUGAAUCAUUAGG [hsa-miR-580] was run?
Answer: 91.4%

Question: CAGCCCCACAGCCUCAGA [hsa-miR-4323] was tested. Which percent viability did it give?
Answer: 39.3%

Question: For AAUGUGUAGCAAAAGACAGA [hsa-miR-511-3p], which percent viability is on record?
Answer: 18.7%

Question: For “UUGGGGGUGAGGUUGGUGUCUGG [hsa-miR-6751-5p]”, which percent viability is on record?
Answer: 7.37%

Question: With UGGAGAUCCAGUGCUCGCCCGAU [hsa-miR-4683] as the sequence, how does the percent viability read?
Answer: 56.7%

Question: Which percent viability does the source give for GUGACUGAUACCUUGGAGGCAU [hsa-miR-4439] here?
Answer: 56.4%

Question: “CAGGGCAGGGAAGGUGGGAGAG [hsa-miR-6879-5p]” was tested. Which percent viability did it give?
Answer: 67.3%

Question: How did the percent viability turn out when UCACACCUGCCUCGCCCCCC [hsa-miR-1228-3p] was run?
Answer: 64.7%

Question: AUUGAAACCUCUAAGAGUGGA [hsa-miR-510-3p] was tested. Which percent viability did it give?
Answer: 41.7%

Question: How did the percent viability turn out when AAAAGCUGGGCUGAGAGGCG [hsa-miR-4429] was run?
Answer: 38.6%

Question: UGUGAUAUCGUGCUUCCUGGGA [hsa-miR-3689f] was tested. Which percent viability did it give?
Answer: 109%

Question: With UACCCAUUGCAUAUCGGAGUUG [hsa-miR-660-5p] as the sequence, how does the percent viability read?
Answer: 30%

Question: How did the percent viability turn out when “GGAGGGGUCCCGCACUGGGAGG [hsa-miR-1914-3p]” was run?
Answer: 126%

Question: How did the percent viability turn out when GCACCCAGGCAAGGAUUCUG [hsa-miR-500b-3p] was run?
Answer: 76.8%

Question: Which percent viability does the source give for AUUCUAAGUGCCUUGGCC [hsa-miR-4263] here?
Answer: 37.3%

Question: Which percent viability does the source give for CACCCGUAGAACCGACCUUGCG [hsa-miR-99b-5p] here?
Answer: 62.9%

Question: How did the percent viability turn out when UAACAUAAUAGUGUGGAUUGA [hsa-miR-4803] was run?
Answer: 168%

Question: UCCCUCCUUCUGUCCCCACAG [hsa-miR-4667-3p] was tested. Which percent viability did it give?
Answer: 71.8%

Question: Which percent viability does the source give for “AGCGCGGGCUGAGCGCUGCCAGUC [hsa-miR-2277-5p]” here?
Answer: 31.3%

Question: UCUCUCUGACUCCAUGGCA [hsa-miR-6817-3p] was tested. Which percent viability did it give?
Answer: 39.3%

Question: For AUUGCCUAACAUGUGCCAGAA [hsa-miR-4774-3p], which percent viability is on record?
Answer: 26.6%

Question: With “AAAGUGCUUCCCUUUGGACUGU [hsa-miR-520a-3p]” as the sequence, how does the percent viability read?
Answer: 60.8%

Question: For ACUGACAGGAGAGCAUUUUGA [hsa-miR-3660], which percent viability is on record?
Answer: 55%

Question: AAUUGCACUUUAGCAAUGGUGA [hsa-miR-367-3p] was tested. Which percent viability did it give?
Answer: 111%

Question: With “CAGGCAGGGAGGUGGGACCAUG [hsa-miR-6808-5p]” as the sequence, how does the percent viability read?
Answer: 21.7%

Question: Which percent viability does the source give for GACAUUCAGACUACCUG [hsa-miR-4262] here?
Answer: 86.4%

Question: With UGGGGAUUUGGAGAAGUGGUGA [hsa-miR-4450] as the sequence, how does the percent viability read?
Answer: 16.5%

Question: Which percent viability does the source give for “AGAAGAUUGCAGAGUAAGUUCC [hsa-miR-4699-5p]” here?
Answer: 48.2%

Question: “UCGACAGCACGACACUGCCUUC [hsa-miR-196b-3p]” was tested. Which percent viability did it give?
Answer: 65.2%

Question: How did the percent viability turn out when ACCAGGGCCAGCAGGGAAUGU [hsa-miR-6837-5p] was run?
Answer: 19.9%

Question: With UCUGGUGUAUAGCGUUGCUCA [hsa-miR-7978] as the sequence, how does the percent viability read?
Answer: 27.6%

Question: For “CAUCAGAAUUCAUGGAGGCUAG [hsa-miR-2115-3p]”, which percent viability is on record?
Answer: 39%

Question: How did the percent viability turn out when “GUGGGUGCUGGUGGGAGCCGUG [hsa-miR-6741-5p]” was run?
Answer: 43.5%

Question: “AACCAUCGACCGUUGAGUGGAC [hsa-miR-181c-3p]” was tested. Which percent viability did it give?
Answer: 71%

Question: For UGAGGCUAAUGCACUACUUCAC [hsa-miR-3975], which percent viability is on record?
Answer: 15.5%

Question: With AACCUUGGCCCCUCUCCCCAG [hsa-miR-6813-3p] as the sequence, how does the percent viability read?
Answer: 75.9%

Question: How did the percent viability turn out when GGCUUGCAUGGGGGACUGG [hsa-miR-4327] was run?
Answer: 40.2%

Question: Which percent viability does the source give for “ACUCAAAAGAUGGCGGCACUUU [hsa-miR-371b-5p]” here?
Answer: 96.1%

Question: “AGGCCUCUGUGACGUCACGGUGU [hsa-miR-4757-5p]” was tested. Which percent viability did it give?
Answer: 62.5%

Question: GAGCUUGGUCUGUAGCGGUU [hsa-miR-4453] was tested. Which percent viability did it give?
Answer: 9.97%

Question: For “UUGUGGCUGGUCAUGAGGCUAA [hsa-miR-4474-3p]”, which percent viability is on record?
Answer: 75.4%

Question: How did the percent viability turn out when “UAGGCCUUUAGAUCACUUAAA [hsa-miR-1245b-5p]” was run?
Answer: 21.5%

Question: Which percent viability does the source give for ACCUUGCAUCUGCAUCCCCAG [hsa-miR-6841-3p] here?
Answer: 28.6%

Question: With UGACCGAUUUCUCCUGGUGUUC [hsa-miR-29c-5p] as the sequence, how does the percent viability read?
Answer: 105%

Question: Which percent viability does the source give for “UCGGGGAUCAUCAUGUCACGAGA [hsa-miR-542-5p]” here?
Answer: 81.9%

Question: With AGACUUCCCAUUUGAAGGUGGC [hsa-miR-617] as the sequence, how does the percent viability read?
Answer: 43.8%

Question: CUCGCCCUGUCUCCCGCUAG [hsa-miR-6726-3p] was tested. Which percent viability did it give?
Answer: 126%

Question: How did the percent viability turn out when CCUGGGGACAGGGGAUUGGGGCAG [hsa-miR-8089] was run?
Answer: 93.2%

Question: How did the percent viability turn out when “UGACCCCCAUGUCGCCUCUGUAG [hsa-miR-6859-3p]” was run?
Answer: 45%

Question: ACAAAGUGCUUCCCUUUAGAGU [hsa-miR-520h] was tested. Which percent viability did it give?
Answer: 173%

Question: With UUUCAGAUAACAGUAUUACAU [hsa-miR-3942-3p] as the sequence, how does the percent viability read?
Answer: 58.8%

Question: For UGAGUAUUACAUGGCCAAUCUC [hsa-miR-496], which percent viability is on record?
Answer: 42%

Question: How did the percent viability turn out when ACUGUAGUAUGGGCACUUCCAG [hsa-miR-20b-3p] was run?
Answer: 74%

Question: CAGUGAUUUGAGGAUUAUUGC [hsa-miR-8062] was tested. Which percent viability did it give?
Answer: 63.9%

Question: With “GUGGUUAUCCCUGUCCUGUUCG [hsa-miR-487b-5p]” as the sequence, how does the percent viability read?
Answer: 37.4%

The sequences below were run on MCF10A (assay: 5+ nucleoli phenotype percent effect (relative to siNT 0% and siKIF11 100%); higher = more cells with five or more nucleoli). Conditions: 20 nM; 72 h.
Method: as §1

Question: How did the “5+ nucleoli phenotype percent effect” value turn out when “AGGUUGUCCGUGUUGUCUUCUCU [hsa-miR-494-5p]” was run?
Answer: 18.5%

Question: For CAUGCCUUGAGUGUAGGACCGU [hsa-miR-532-5p], which “5+ nucleoli phenotype percent effect” value is on record?
Answer: -20.1%

Question: For “CAUGCUGACCUCCCUCCUGCCCCAG [hsa-miR-4728-3p]”, which “5+ nucleoli phenotype percent effect” value is on record?
Answer: 20.8%

Question: How did the “5+ nucleoli phenotype percent effect” value turn out when UACAGAUGCAGAUUCUCUGACUUC [hsa-miR-5683] was run?
Answer: 8.12%

Question: Which “5+ nucleoli phenotype percent effect” value does the source give for UUGAGAAUGAUGAAUCAUUAGG [hsa-miR-580] here?
Answer: 25.6%

Question: Which “5+ nucleoli phenotype percent effect” value does the source give for CAGCCCCACAGCCUCAGA [hsa-miR-4323] here?
Answer: -13.4%

Question: With AAUGUGUAGCAAAAGACAGA [hsa-miR-511-3p] as the sequence, how does the “5+ nucleoli phenotype percent effect” value read?
Answer: -40.6%

Question: “UUGGGGGUGAGGUUGGUGUCUGG [hsa-miR-6751-5p]” was tested. Which “5+ nucleoli phenotype percent effect” value did it give?
Answer: -13.1%

Question: UGGAGAUCCAGUGCUCGCCCGAU [hsa-miR-4683] was tested. Which “5+ nucleoli phenotype percent effect” value did it give?
Answer: -20.1%

Question: How did the “5+ nucleoli phenotype percent effect” value turn out when GUGACUGAUACCUUGGAGGCAU [hsa-miR-4439] was run?
Answer: -27.6%

Question: “CAGGGCAGGGAAGGUGGGAGAG [hsa-miR-6879-5p]” was tested. Which “5+ nucleoli phenotype percent effect” value did it give?
Answer: 36.6%

Question: With UCACACCUGCCUCGCCCCCC [hsa-miR-1228-3p] as the sequence, how does the “5+ nucleoli phenotype percent effect” value read?
Answer: -13.8%

Question: How did the “5+ nucleoli phenotype percent effect” value turn out when AUUGAAACCUCUAAGAGUGGA [hsa-miR-510-3p] was run?
Answer: 8.91%

Question: With AAAAGCUGGGCUGAGAGGCG [hsa-miR-4429] as the sequence, how does the “5+ nucleoli phenotype percent effect” value read?
Answer: -19.2%

Question: With UGUGAUAUCGUGCUUCCUGGGA [hsa-miR-3689f] as the sequence, how does the “5+ nucleoli phenotype percent effect” value read?
Answer: 17.5%

Question: With UACCCAUUGCAUAUCGGAGUUG [hsa-miR-660-5p] as the sequence, how does the “5+ nucleoli phenotype percent effect” value read?
Answer: -38.8%

Question: Which “5+ nucleoli phenotype percent effect” value does the source give for “GGAGGGGUCCCGCACUGGGAGG [hsa-miR-1914-3p]” here?
Answer: 46.6%

Question: For GCACCCAGGCAAGGAUUCUG [hsa-miR-500b-3p], which “5+ nucleoli phenotype percent effect” value is on record?
Answer: -15.3%

Question: For AUUCUAAGUGCCUUGGCC [hsa-miR-4263], which “5+ nucleoli phenotype percent effect” value is on record?
Answer: -1.39%

Question: With CACCCGUAGAACCGACCUUGCG [hsa-miR-99b-5p] as the sequence, how does the “5+ nucleoli phenotype percent effect” value read?
Answer: -9.05%

Question: For UAACAUAAUAGUGUGGAUUGA [hsa-miR-4803], which “5+ nucleoli phenotype percent effect” value is on record?
Answer: 40.9%

Question: For UCCCUCCUUCUGUCCCCACAG [hsa-miR-4667-3p], which “5+ nucleoli phenotype percent effect” value is on record?
Answer: -12.9%

Question: How did the “5+ nucleoli phenotype percent effect” value turn out when “AGCGCGGGCUGAGCGCUGCCAGUC [hsa-miR-2277-5p]” was run?
Answer: -22.4%

Question: Which “5+ nucleoli phenotype percent effect” value does the source give for UCUCUCUGACUCCAUGGCA [hsa-miR-6817-3p] here?
Answer: 1.83%

Question: Which “5+ nucleoli phenotype percent effect” value does the source give for AUUGCCUAACAUGUGCCAGAA [hsa-miR-4774-3p] here?
Answer: -31.6%

Question: How did the “5+ nucleoli phenotype percent effect” value turn out when “AAAGUGCUUCCCUUUGGACUGU [hsa-miR-520a-3p]” was run?
Answer: 40.6%

Question: How did the “5+ nucleoli phenotype percent effect” value turn out when ACUGACAGGAGAGCAUUUUGA [hsa-miR-3660] was run?
Answer: 21.1%

Question: How did the “5+ nucleoli phenotype percent effect” value turn out when AAUUGCACUUUAGCAAUGGUGA [hsa-miR-367-3p] was run?
Answer: 18%

Question: For “CAGGCAGGGAGGUGGGACCAUG [hsa-miR-6808-5p]”, which “5+ nucleoli phenotype percent effect” value is on record?
Answer: -14.6%
